# Data from paper PMC8517284 (EBioMedicine, 2021).
# B1: GFP-tagged full-length recombinant human D3 (1-304 aa), D3^FL (enzyme)
# chain: MPRQATSRLVVGEGEGSQGASGPAATMLRSLLLHSLRLCAQTASCLVLFPRFLGTAFMLWLLDFLCIRKHFLGRRRRGQPEPEVELNSEGEEVPPDDPPICVSDDNRLCTLASLKAVWHGQKLDFFKQAHEGGPAPNSEVVLPDGFQSQHILDYAQGNRPLVLNFGSCTCPPFMARMSAFQRLVTKYQRDVDFLIIYIEEAHPSDGWVTTDSPYIIPQHRSLEDRVSAARVLQQGAPGCALVLDTMANSSSSAYGAYFERLYVIQSGTIMYQGGRGPDGYQVSELRTWLERYDEQLHGARPRRV
# Biological target: human integrin αvβ3 (R&D Systems, 3050-AV-050) (human, UniProt P06756 31-1048; P05106 27-718)
# Assay: SPR
binder,measurement,value
B1,Kd,2110 nM
